According to patent US20180155451A1 (published 2018):

T1: FcgRIIb (human, UniProt P31994 43-217)
T1 construct: extracellular domain; also called FcγRIIb; not shown: His tag attached to the C terminus
T1 sequence (looked up): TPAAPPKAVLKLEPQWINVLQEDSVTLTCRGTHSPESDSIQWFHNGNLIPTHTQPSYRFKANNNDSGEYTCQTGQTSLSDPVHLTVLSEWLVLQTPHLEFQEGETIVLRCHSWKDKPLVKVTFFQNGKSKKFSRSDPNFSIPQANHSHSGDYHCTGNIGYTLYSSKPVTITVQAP


Key:
Experiment in all cases: SPR (Biacore); KD of H240-Kn061/H240-Hl071/L73-k0 divided by KD of the variant
FcgRIIIa V = biological target: T2, FcgRIIIa V (human, UniProt P08637 17-208)
T2 construct: extracellular domain; also called FcγRIIIa V; not shown: His tag attached to the C terminus
Description: (§1) The antibodies were assessed for the binding to each FcgR. […] The resultant value was defined as relative KD, and used as an assessment indicator.
(§2) Analysis of interaction between obj ective antibody and the FcγR was carried out using Biacore T100 (GE Healthcare), Biacore T200, Biacore A100, and Biacore 4000. HBS-EP+ (GE Healthcare) was used as the running buffer, and the measurement temperature was set to 25° C. Chips produced by immobilizing the antigen peptide by the amine coupling method to a Series S sensor Chip CM5 (GE Healthcare), chips produced by allowing preliminarily biotinylated antigen peptides to interact with and immobilize onto a Series S Sensor Chip SA (certified) (GE Healthcare), chips produced by immobilizing Protein L (ACTIGEN, BioVision) to Series S Sencor Chip CM5 (GE Healthcare), or chips produced by immobilizing Protein A/G (Thermo Scientific) to Series S Sencor Chip CM5 (GE Healthcare) were used. Antibodies of interest were captured onto these chips, and allowed to interact to each FcγR diluted with running buffer.

FcgRIIIa F = biological target: T3, FcgRIIIa F (human, UniProt P08637 17-208)
T3 construct: extracellular domain; also called FcγRIIIa F; 3aF; not shown: His tag attached to the C terminus
Description: as §1, §2

FcgRIIb = biological target: T1, FcgRIIb
Description: as §1, §2

T2 sequence (P08637 17-208 F176V limits assumed): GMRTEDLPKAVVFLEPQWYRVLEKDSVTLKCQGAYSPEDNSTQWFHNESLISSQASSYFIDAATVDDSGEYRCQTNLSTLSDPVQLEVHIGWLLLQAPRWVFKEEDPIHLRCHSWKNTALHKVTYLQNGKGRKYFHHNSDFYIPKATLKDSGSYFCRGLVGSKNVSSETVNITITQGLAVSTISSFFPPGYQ
T3 sequence (P08637 17-208): as the sequence (P08637 17-208 F176V limits assumed) above, with V160F counted along it

Row | Binder | Relative KD (FcgRIIIa V) | Relative KD (FcgRIIIa F) | Relative KD (FcgRIIb)
1 | H240-Kn061 (Y235M)/H240-Hl071/L73-k0 (antibody, human IgG1, kappa) heavy 1: QDQLVQSGAEVKKPGASVKVSCKASGFNIKDTYIQWVRQAPGQGLEWMGRIDPLRKQTKYREKFEGRVTITADTSTNTAYMELSSLRSEDTAVYYCVRSGREFDYWGQGTLVTVSSASTKGPSVFPLAPSSKSTSGGTAALGCLVKDYFPEPVTVSWNSGALTSGVHTFPAVLQSSGLYSLSSVVTVPSSSLGTQTYICNVNHKPSNTKVDKKVEPKSCDKTHTCPPCPAPEYMWGPSVFLFPPKPKDTLMISRTPEVTCVVVDVSDEDPEVKFNWYVDGVEVHNAKTKPREEQYNATYRVVSVLTVLHQDWLNGKEYKCKVSNKALPAPIEKTISKAKGQPREPQVCTLPPSRDELTKNQVSLWCLVKGFYPSDIAVEWESNGQPENNYKTTPPVLDSDGSFFLYSKLTVDKSRWQQGNVFSCSVMHEALHNHYTQKSLSLSP heavy 2: QDQLVQSGAEVKKPGASVKVSCKASGFNIKDTYIQWVRQAPGQGLEWMGRIDPLRKQTKYREKFEGRVTITADTSTNTAYMELSSLRSEDTAVYYCVRSGREFDYWGQGTLVTVSSASTKGPSVFPLAPSSKSTSGGTAALGCLVKDYFPEPVTVSWNSGALTSGVHTFPAVLQSSGLYSLSSVVTVPSSSLGTQTYICNVNHKPSNTKVDKKVEPKSCDKTHTCPPCPAPELLGGPSVFLFPPKPKDTLMISRTPEVTCVVVDVSHEDPEVKFNWYVDGVEVHNAKTKPREEQYNSTYRVVSVLTVLHQDWLNGKEYKCKVSNDALPMPIEETISKAKGQPREPQVYTLPPSRCELTKNQVSLSCAVKGFYPSDIAVEWESNGQPENNYKTTPPVLDSDGSFFLVSKLTVDKSRWQQGNVFSCSVMHEALHNHYTQKSLSLSP light: DIQMTQSPSSLSASVGDRVTITCRASQDIHKYIAWYQQKPGQAPRLLIQYTSTLQPGVPSRFSGSGSGTDYTFTISSLQPEDIATYYCLQYEQLRTFGGGTKVEIKRTVAAPSVFIFPPSDEQLKSGTASVVCLLNNFYPREAKVQWKVDNALQSGNSQESVTEQDSKDSTYSLSSTLTLSKADYEKHKVYACEVTHQGLSSPVTKSFNRGEC | 1.8 | 1.7 | 0.7
2 | H240-Kn061 (Y235N)/H240-Hl071/L73-k0 (antibody, human IgG1, kappa) heavy 1: QDQLVQSGAEVKKPGASVKVSCKASGFNIKDTYIQWVRQAPGQGLEWMGRIDPLRKQTKYREKFEGRVTITADTSTNTAYMELSSLRSEDTAVYYCVRSGREFDYWGQGTLVTVSSASTKGPSVFPLAPSSKSTSGGTAALGCLVKDYFPEPVTVSWNSGALTSGVHTFPAVLQSSGLYSLSSVVTVPSSSLGTQTYICNVNHKPSNTKVDKKVEPKSCDKTHTCPPCPAPEYNWGPSVFLFPPKPKDTLMISRTPEVTCVVVDVSDEDPEVKFNWYVDGVEVHNAKTKPREEQYNATYRVVSVLTVLHQDWLNGKEYKCKVSNKALPAPIEKTISKAKGQPREPQVCTLPPSRDELTKNQVSLWCLVKGFYPSDIAVEWESNGQPENNYKTTPPVLDSDGSFFLYSKLTVDKSRWQQGNVFSCSVMHEALHNHYTQKSLSLSP heavy 2: QDQLVQSGAEVKKPGASVKVSCKASGFNIKDTYIQWVRQAPGQGLEWMGRIDPLRKQTKYREKFEGRVTITADTSTNTAYMELSSLRSEDTAVYYCVRSGREFDYWGQGTLVTVSSASTKGPSVFPLAPSSKSTSGGTAALGCLVKDYFPEPVTVSWNSGALTSGVHTFPAVLQSSGLYSLSSVVTVPSSSLGTQTYICNVNHKPSNTKVDKKVEPKSCDKTHTCPPCPAPELLGGPSVFLFPPKPKDTLMISRTPEVTCVVVDVSHEDPEVKFNWYVDGVEVHNAKTKPREEQYNSTYRVVSVLTVLHQDWLNGKEYKCKVSNDALPMPIEETISKAKGQPREPQVYTLPPSRCELTKNQVSLSCAVKGFYPSDIAVEWESNGQPENNYKTTPPVLDSDGSFFLVSKLTVDKSRWQQGNVFSCSVMHEALHNHYTQKSLSLSP light: DIQMTQSPSSLSASVGDRVTITCRASQDIHKYIAWYQQKPGQAPRLLIQYTSTLQPGVPSRFSGSGSGTDYTFTISSLQPEDIATYYCLQYEQLRTFGGGTKVEIKRTVAAPSVFIFPPSDEQLKSGTASVVCLLNNFYPREAKVQWKVDNALQSGNSQESVTEQDSKDSTYSLSSTLTLSKADYEKHKVYACEVTHQGLSSPVTKSFNRGEC | 2 | 1.3 | 0.7
